Source: patent US20250382354A1
Where two headings read alike, the source gives them in different places.

Experiments:
[1] = biological target: SARS-CoV-2 S ectodomain, ancestral (S-2P) (SARS-CoV-2) (UniProt P0DTC2); assay: ELISA on coated S
[2] = biological target: SARS-CoV-2 S ectodomain, ancestral (S-2P) (SARS-CoV-2) (UniProt P0DTC2)
[3] = biological target: SARS-CoV-2 S ectodomain, ancestral (S-2P) (SARS-CoV-2) (UniProt P0DTC2); remark: listed apart in the source
[4] = biological target: SARS-CoV-2 S Ancestral (S-2P ectodomain) (SARS-CoV-2 (ancestral)) (UniProt P0DTC2); assay: protein ELISA

Substance	EC50 [1] [µg/mL]	IC50 (read off the curve) [2] [µg/mL]	IC50 (read off the curve) [3] [µg/mL]	EC50 [4] [µg/mL]
S2P6 (antibody)	0.0379			
C121 (antibody)		1	0.3	0.0187
CV3-25 (antibody)	0.0139			
